Measurements from the supplement of paper PMC10899765.

Experiments:
Conditions in all cases: 20 nM; 72 h
MCF10A [1] = assay: one-nucleolus phenotype percent effect (relative to siNT 0% and siNOL11 100%); higher = more cells with one nucleolus (ribosome biogenesis inhibition)
Method: (§1)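 After 72 h, cells were fixed and stained with Hoechst and anti-fibrillarin, and nucleoli per nucleus were counted with CellProfiler. Values are plate-adjusted percent effect for the one-nucleolus and 5+ nucleoli phenotypes, normalised to siNT (0%) and to the positive controls siNOL11 or siKIF11 (100%), as the mean of biological triplicates. Percent viability is the nuclei count relative to siNT.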

MCF10A [2] = assay: percent viability (nuclei count relative to siNT); higher = more viable cells
Method: as §1

MCF10A [3] = assay: 5+ nucleoli phenotype percent effect (relative to siNT 0% and siKIF11 100%); higher = more cells with five or more nucleoli
Method: as §1

| Sequence | one-nucleolus phenotype percent effect (MCF10A [1]) [%] | percent viability (MCF10A [2]) [%] | 5+ nucleoli phenotype percent effect (MCF10A [3]) [%] |
| --- | --- | --- | --- |
| CUGGACUUUGAUCUUGCCAUAA [hsa-miR-8058] | 32.1 | 58.9 | -11.1 |
| AUAUGCCUGGCUAGCUCCUC [hsa-miR-4633-5p] | 27.8 | 31.4 | -31.2 |
| AAUGAGAGACCUGUACUGUAU [hsa-miR-4712-3p] | 34.8 | 7.13 | -22.6 |
| CGGGGCCAUGGAGCAGCCUGUGU [hsa-miR-6762-5p] | -11.4 | 86.4 | 28.2 |
| AAAGUUCUGAGACACUCCGACU [hsa-miR-148a-5p] | -5.53 | 89 | 9.44 |
| UACGCGCAGACCACAGGAUGUC [hsa-miR-3939] | -5.45 | 38.1 | 11.7 |
| CGCAGGGGCCGGGUGCUCACCG [hsa-miR-1909-3p] | 20.6 | 26.7 | 13.4 |
| UAAAUCCCAUGGUGCCUUCUCCU [hsa-miR-605] | 53.8 | 31.2 | -52.1 |
| UGUAGGCAUGAGGCAGGGCCCAGG [hsa-miR-6806-5p] | -16.3 | 32.5 | 44.5 |
| UCCCUGAGACCCUUUAACCUGUGA [hsa-miR-125a-5p] | -18.8 | 117 | 28.8 |
| AAGUGCUGUCAUAGCUGAGGUC [hsa-miR-512-3p] | -17.8 | 69.7 | 45.1 |
| AAGACGGGAGGAAAGAAGGGAG [hsa-miR-483-5p] | 19.1 | 51.5 | -31.8 |
| UCACCUGAGCUCCCGUGCCUG [hsa-miR-3622b-3p] | -20.9 | 107 | 29.9 |
| UGGACCUCUCCUCCCCAG [hsa-miR-6861-3p] | 2.35 | 40.5 | 7.71 |
| UUGCCUGCCCUCUUCCUCCAG [hsa-miR-6894-3p] | 22.3 | 24.2 | -20.1 |
| GAAAGCGCUUCUCUUUAGAGG [hsa-miR-518f-3p] | 17.1 | 63.6 | -8.13 |
| CAUGGGGUAGGGCAGAGUAGG [hsa-miR-6890-5p] | 21.6 | 43.6 | -15.7 |
| CACUAGAUUGUGAGCUCCUGGA [hsa-miR-28-3p] | -9.21 | 92.2 | 12.4 |
| UCGCGCCCCGGCUCCCGUUC [hsa-miR-1292-3p] | -6.7 | 64.3 | 9.03 |
| AGCUCGGUCUGAGGCCCCUCAGU [hsa-miR-423-3p] | 19.5 | 56.6 | -11.8 |

| Sequence | one-nucleolus phenotype percent effect (MCF10A [1]) [%] | percent viability (MCF10A [2]) [%] | 5+ nucleoli phenotype percent effect (MCF10A [3]) [%] |
| --- | --- | --- | --- |
| UUAUAAAGCAAUGAGACUGAUU [hsa-miR-340-5p] | 47.7 | 21.9 | -24.6 |
| CCACCGGGGGAUGAAUGUCAC [hsa-miR-181d-3p] | 24.4 | 40.6 | -15.9 |
| CCCAAUACACGGUCGACCUCUU [hsa-miR-323b-3p] | -23.7 | 77.6 | 68.7 |
| CAUCCGUCCGUCUGUCCAC [hsa-miR-4800-3p] | -2.39 | 67.4 | -3.64 |
| UUGAGGAAAAGAUGGUCUUAUU [hsa-miR-3915] | -3.96 | 36.5 | -19 |
| UCCCACUACUUCACUUGUGA [hsa-miR-4301] | -19.4 | 45.1 | 60.9 |
| ACGGGGAGUCAGGCAGUGGUGGA [hsa-miR-6777-5p] | 32 | 28.5 | -32.1 |
| UGCUUCCUUUCUCAGCUG [hsa-miR-7162-5p] | 0.399 | 64.9 | -13.8 |
| UAACAAACACCUGUAAAACAGC [hsa-miR-5688] | -7.14 | 101 | 22.5 |
| AGCCCGCCCCAGCCGAGGUUCU [hsa-miR-4707-3p] | 19.7 | 42.9 | -25.2 |
| AAAAACCACAAUUACUUUUGCACCA [hsa-miR-548t-3p] | -19.6 | 157 | 39.3 |
| CAUGCUAGGAUAGAAAGAAUGG [hsa-miR-3146] | 15.7 | 30.5 | -22.8 |
| GUGUCUGGGCGGACAGCUGC [hsa-miR-1231] | 62.4 | 39.3 | -15.6 |
| AGAGUCUUGUGAUGUCUUGC [hsa-miR-924] | 24.7 | 42.5 | -44.9 |
| CUAUACGACCUGCUGCCUUUCU [hsa-let-7d-3p] | -15.3 | 84.7 | 18.1 |
| GAAUCGGAAAGGAGGCGCCG [hsa-miR-3610] | -7.32 | 93.4 | 19.9 |
| UGUGCUUGCUCGUCCCGCCCGCA [hsa-miR-636] | 5.25 | 111 | -6.7 |
| UCCCACGUUGUGGCCCAGCAG [hsa-miR-662] | -20.4 | 128 | 35.3 |
| UGGUGGGUGGGGAGGAGAAGUGC [hsa-miR-6769b-5p] | 23.2 | 18.8 | -22.4 |
| GUACCUUCUGGUUCAGCUAGU [hsa-miR-4724-3p] | -22.1 | 82.8 | 19.8 |

| Sequence | one-nucleolus phenotype percent effect (MCF10A [1]) [%] | percent viability (MCF10A [2]) [%] | 5+ nucleoli phenotype percent effect (MCF10A [3]) [%] |
| --- | --- | --- | --- |
| UGGACGGAGAACUGAUAAGGGU [hsa-miR-184] | -17.7 | 43 | 80.3 |
| CCUGCAACUUUGCCUGAUCAGA [hsa-miR-4772-3p] | -15.1 | 47.3 | 16.6 |
| CCUCUGGGCCCUUCCUCCAG [hsa-miR-326] | 56.9 | 20.2 | -35.6 |
| UCUGUGCUUCACCCCUACCCAG [hsa-miR-6737-3p] | 3.19 | 68.8 | -3.33 |
| AGGGUGGGGCUGGAGGUGGGGCU [hsa-miR-6756-5p] | 3.98 | 42 | -11 |
| AUAGUCCGAGUAACGUCGGGGC [hsa-miR-6723-5p] | 16.5 | 54 | -28.9 |
| CACACAGGAAAAGCGGGGCCCUG [hsa-miR-6768-5p] | -20.7 | 55.7 | 24.4 |
| UUCACAGUGGCUAAGUUCCGC [hsa-miR-27a-3p] | -7.64 | 118 | -6.22 |
| CAGGAGGCAGUGGGCGAGCAGG [hsa-miR-4695-5p] | -5.49 | 54.7 | 14.2 |
| GUUCUGUUAACCCAUCCCCUCA [hsa-miR-4652-3p] | 16 | 28.2 | -42.7 |
| UGGGAUGAGGGAUUGAAGUGGA [hsa-miR-5187-5p] | -17.7 | 25.8 | 24.8 |
| AGGGGGUAGAAAGUGGCUGAAG [hsa-miR-6835-5p] | 11.4 | 14.9 | -24.3 |
| UCCCCUCCACUUUCCUCCUAG [hsa-miR-6887-3p] | -0.315 | 33.5 | -13.1 |
| GCCCUCCGCCCGUGCACCCCG [hsa-miR-1470] | -19.6 | 113 | 45.2 |
| CAGUGCAAUGAUGAAAGGGCAU [hsa-miR-130b-3p] | -14.8 | 77 | 59.9 |
| CGGCGCCCGUGUCUCCUCCAG [hsa-miR-6789-3p] | -9.93 | 59.9 | 32.6 |
| ACUUUCCUCACUCCCGUGAAGU [hsa-miR-3124-3p] | -15.5 | 115 | 49.4 |
| AAGGCCUUUCUGAACCUUCAGA [hsa-miR-3142] | 19.5 | 23.2 | -15 |
| CCCAUCACCUUUCCGUCUCCCCU [hsa-miR-6884-3p] | -25.5 | 70.3 | 50.9 |
